B1: HMGB1 produced in NS0 mouse myeloma cell line (Euk-HMGB1, R&D Systems) (natural protein, human, UniProt P09429 1-215, looked up)
chain: MGKGDPKKPRGKMSSYAFFVQTCREEHKKKHPDASVNFSEFSKKCSERWKTMSAKEKGKFEDMAKADKARYEREMKTYIPPKGETKKKFKDPNAPKRPPSAFFLFCSEYRPKIKGEHPGLSIGDVAKKLGEMWNNTAADDKQPYEKKAAKLKEKYEKDIAAYRAKGKPDAAKKGVVKAEKSKKKKEEEEDEEDEEDEEEEEDEEDEDEEEDDDDE
notes: High-mobility group box 1 (HMGB1), human, produced in mouse myeloma cell line NS0; No catalogue number is printed; also called HMGB1 WT (R&D); source: bought: R&D Systems (produced in NS0 mouse myeloma cell line)
B2: HMGB1 box A (aa 1-79) (domain or fragment, human, UniProt P09429 1-79, looked up)
chain: MGKGDPKKPRGKMSSYAFFVQTCREEHKKKHPDASVNFSEFSKKCSERWKTMSAKEKGKFEDMAKADKARYEREMKTYI
notes: HMGB1, human, A box, aa 1-79; Subcloned into pRSET B; also called HMGB1 A box; A box; source: E. coli BL21 (DE3) pLysE, purified
B3: HMGB1 box B (aa 88-162) (domain or fragment, human, UniProt P09429 88-162, looked up)
chain: KFKDPNAPKRPPSAFFLFCSEYRPKIKGEHPGLSIGDVAKKLGEMWNNTAADDKQPYEKKAAKLKEKYEKDIAAY
notes: HMGB1, human, B box, aa 88-162; Subcloned into pRSET B; also called HMGB1 B box; B box; source: E. coli BL21 (DE3) pLysE, purified

Experiments:
[1] = target: T1, purified normal human C1q (human, UniProt P02745 23-245; P02746 28-253; P02747 29-245); experiment: SPR; reciprocal: HMGB1 WT (R&D), A box or B box (10 µg/ml) immobilised on CM5 chip in 10 mM sodium acetate pH 4.0; C1q in HBS-EP (10 mM HEPES, 150 mM NaCl, 3.4 mM EDTA, 0.05% Tween 20, pH 7.4) at 200, 100, 50, 25 and 12.5 nM, 20 µl/min for 3 min; BIAcore 2000; details: both partners purified
T1 construct: Complement C1q subcomponent subunit A, human; Complement C1q subcomponent subunit B, human; Complement C1q subcomponent subunit C, human; Used purified (ELISA, SPR) and in 10% normal human serum (microspheres); also called serum C1q; C1q protein; source: bought: Sigma (purified normal human C1q); endogenous, normal human serum; copies: + +

[2] = target: T1, purified normal human C1q; experiment: SPR; C1q immobilised on CM5 dextran sensor chip; HMGB1 proteins passed over at 1.8, 0.9, 0.45, 0.23 and 0.11 µM; BIAcore 2000; details: both partners purified

T1 sequence (P02745 23-245, chain 1 of 3): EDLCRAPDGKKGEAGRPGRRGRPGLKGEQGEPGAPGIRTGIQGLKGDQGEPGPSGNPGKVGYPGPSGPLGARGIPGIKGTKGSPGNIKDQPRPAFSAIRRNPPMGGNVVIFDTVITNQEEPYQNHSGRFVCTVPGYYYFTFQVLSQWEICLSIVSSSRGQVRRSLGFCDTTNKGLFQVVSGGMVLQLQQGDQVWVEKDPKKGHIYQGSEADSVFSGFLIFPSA
T1 sequence (P02746 28-253, chain 2 of 3): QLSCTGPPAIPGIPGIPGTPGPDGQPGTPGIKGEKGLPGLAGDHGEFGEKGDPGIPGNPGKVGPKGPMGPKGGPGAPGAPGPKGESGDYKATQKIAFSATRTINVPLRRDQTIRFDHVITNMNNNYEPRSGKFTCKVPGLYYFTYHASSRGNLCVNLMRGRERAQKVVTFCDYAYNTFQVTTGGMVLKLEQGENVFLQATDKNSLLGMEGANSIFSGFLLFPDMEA
T1 sequence (P02747 29-245, chain 3 of 3): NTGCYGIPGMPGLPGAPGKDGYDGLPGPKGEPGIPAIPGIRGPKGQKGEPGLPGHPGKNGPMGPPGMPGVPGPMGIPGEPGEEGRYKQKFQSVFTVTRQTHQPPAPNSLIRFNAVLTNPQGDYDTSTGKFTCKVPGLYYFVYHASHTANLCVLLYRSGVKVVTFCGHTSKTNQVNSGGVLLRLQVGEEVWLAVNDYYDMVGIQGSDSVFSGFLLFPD

| Binder | Kd [1] [nM] | Kd [2] [µM] |
| --- | --- | --- |
| B1 | ~400 |  |
| B2 |  | ~4 |
| B3 |  | ~4 |

Source: PMC5904255, “High-Mobility Group Box 1-Induced Complement Activation Causes Sterile Inflammation” (Frontiers in Immunology, 2018)
